The source of these data is the nanobody polyreactivity screen of Harvey et al. (2022).

This series in a line: yeast display, Sf9 membrane polyspecificity reagent, FACS + sequencing; frameworks hold sequencing errors. An outline of the steps:
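In a synthetic yeast display library (Saccharomyces cerevisiae BJ5465), nanobody expression was induced with galactose for 36–48 hours. FACS gates were set low and high (top ~1%) using anti-HA fluorescence for expression and streptavidin fluorescence for binding of the Sf9 membrane reagent. Each polyreactivity label is drawn from the gate of origin.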
Consider “QVQLVESGGGLVQAGVSLPLICAASGFTIAYYTMGWYRQAPGKERELVAAISRRGSSTYYADSVMGRFTISRDNAKNTVDLQMNSLKPEDTAVYYCNKYSVLTPGYYYWGQGTQVTVSS”, for which the “polyreactivity (PSR sort gate)” value is recorded as “high polyreactivity”.

For the sequence “QVHLVESGGGLVQAGGSLRLSCAASGRIFGPYAMGWYRQAPGKERELVASISGGGSTNYADSVKGRFTISRDNAKNTVYLQMNSLKPEDTAVYYCAADVYYQYWGWWPYDYWGQGTQVTVSS”, the “polyreactivity (PSR sort gate)” value is reported as “low polyreactivity”.

Consider “QVQLVESGGGLVQAGGSLRLSCAASGRILWWYAMGWYRQAPRKEREFFAAITTSGGSTYYADSVKGRFTISRDNAKNTVYLQMTSLKPEDNAVYYCAADLFVRNLVYTYDYDYWGQGTQVTVSA”, for which the “polyreactivity (PSR sort gate)” value is listed as “high polyreactivity”.

Turning to “QVQLVESGGGLVQAGGSLRLSCAASGSIFSKYVMGWYRQAPGKERELVAAISWSGTRTYYADSVKGRFTISRDNAKNTVYLQMNSLKPEDTAVYYCAARRLYAGHQYDYWGQGTQVTVSS”, the “polyreactivity (PSR sort gate)” value is reported as “high polyreactivity”.

As to “QVQLVESGGGLVQAGGSLRLSCAASGSIFGRYAMGWYRQAPGKEREFVAAINRSTGSTYYADSVKGRFTISRDNAKNTVYLQMNSLKPEDTAVYYCAARSHSPGYNRRIRGYWGQGTQVTVSS”, the “polyreactivity (PSR sort gate)” value is listed as “high polyreactivity”.

Take “QVQLVESVGGLVQAGGSLRLSCAASGYTFFYAMGWYRQAPGKERELVASITSAASTTYADSVKGRFTISRDNAKNTVYLQMNSLKPEDTAVYYCAASHSWWFYPGYYYWGQGTQVTVSS”: the “polyreactivity (PSR sort gate)” value is recorded as “high polyreactivity”.

Consider “QVQLVESGGGLVQAGGSLRLSCAASGFIFGYYAMGWDRQAPGKERELVAAITSDGNTDYSDSVKGRFTISRDNAKNTVYLQMNSLKPEDTAVYYCATDWVDHYDYWGQGTQVTVSS”, for which the “polyreactivity (PSR sort gate)” value is listed as “low polyreactivity”.

As to “QVQLVESGGGLVQAGGSLRLSCAASGRTFKRYAMGWYRQAPGKERELVAAITWSGGNTYYADSVKGRFTISRDNAKNTVYLQINSLKPEDTAVYYCAAKGAGRRYDSWGQGTQVTVSS”, the “polyreactivity (PSR sort gate)” value is recorded as “high polyreactivity”.

Consider “QVQLLESGGGLVQAGGSLRLSCAASGFIFNHYAMGWYRQAPGKEREFVAAISWSGGSTYYADSVKGRFTISRDNAKNTVYLQMNSLKPEDTAVYYCAASYNGLWHGDYDYWGQGTQVTVSS”, for which the “polyreactivity (PSR sort gate)” value is recorded as “low polyreactivity”.

For the sequence “QVQLVESGGGLVQAGGSLRLSCAASGSIFVYNVMGWYRQAPGKERELVAAINYSGVSTYYADSVKGRFTISRDNAKNTVYLQMNSLKPEDTAVYYCAAEYEFGHSSTPMDYWGQGTQVTVSS”, the “polyreactivity (PSR sort gate)” value is on record as “high polyreactivity”.

Regarding “QVQLVETGGGLVQAGGSLRLSCAPSGRIFGIYAMGWYRQAPGKERELVASITDGTITNYADSVKGRFTISRDNAKNTVYLQMNSLKPVDTAVYYFAAGTQAHAYVVRPIEMDYWGQGTQVTVSS”, the “polyreactivity (PSR sort gate)” value is “low polyreactivity”.

Consider “QVQLVESGGGLVQAGGSLRLSCAASGSTFRSYAMGWYRQAPGKERESVARISYRTGSTYYADSVKGRFTISRDNAKNTVYLQMNSLEPEDTAVYYCATRGSYVGGLYDYWGQGTQVTVSS”, for which the “polyreactivity (PSR sort gate)” value is “high polyreactivity”.

Take “QVQLVESGGGLVQAGGSLRLICAASGYTFYAYAMGWYRQAPGKERELVAAITSGSSTYYADSVKGRFTISRDNAKNTVYLQMNSLKQEDTAVYYCASRIRGWRLLTSYYWGQGTQVTVSS”: the “polyreactivity (PSR sort gate)” value is reported as “low polyreactivity”.

For the sequence “QVQLVESGGGLVQAGGSLRLSCAAYGRIFIGYTMGWYRQAPGNERELVAVISYRGGRTYYADSVKGRFTISRDNAKNTVYLQMNSLKPEDTAVYYCAAYRPGVISGFDYWGQGTQVTVSS”, the “polyreactivity (PSR sort gate)” value was “high polyreactivity”.

“QFQLVESGGGLVQAGGSLRLSCAASGGTLYIYAMGWYRKAPGKERELVAAIRGRGGSTYADSVKGRFTISRDNAKNTVYLQMNSLKPVDTAVYYCAAYARQRSNTIYYDYWGQGTQVTVSS”: the “polyreactivity (PSR sort gate)” value is given as “high polyreactivity”.

For “QVQLVESGGGLVQAGGSLRLSCAASGFIFYYYTMGWYRQAPGKERELVAAISSGGSTYYADSVKGRFTISRDNAKNTVYLQMNSLKPEDTAVYYCNKRYPSPEYNYWGQGTQVTVSS”, the “polyreactivity (PSR sort gate)” value is listed as “high polyreactivity”.

As for “PVQLVESGGGLVQAGGSLRLSCAGSGFTFYTNTMGWYIQAPGKERELVAAISSGGSTYADSVKVRYTISRDNAKNTVDLQMNSLKPEDTAVYYCARDFYYSLSGFDYWGQGTQVTVSS”, the “polyreactivity (PSR sort gate)” value is listed as “low polyreactivity”.

As to “QVQLEESGGGLVQAGGSLRLTCAASGRNFTYYAMGWSIQAPGNEREIVAAISSSGGSTSYADSVKGRFTISRDNAKNTVYLQMNSLKPEDTAVYYCAAVTRDYGSRSGLDYWGQGTQVTVSS”, the “polyreactivity (PSR sort gate)” value was “high polyreactivity”.

In the case of “QVQLVESGGGLVQAGGSLRLSCAASGFTFTYNTMGWYRQAPGKERELVAAISRSGGSTYYADSVKGRFTISRDNAKNTVYLQMNSLKPEDTAVYYCAKQRRDYNGGYWGQGTQVTVSS”, the “polyreactivity (PSR sort gate)” value is listed as “high polyreactivity”.

In the case of “QVQLVESGGGLVQAGGSLRLSCAASGFMFDGYAMGWYRQAPGKERELVAAINFSGGSTYYADSVKGRFTISRDNAKNTVYLQMNSLKPEETAVYYCNADLEWNWVQFGYGYWGQGTQVTVSS”, the “polyreactivity (PSR sort gate)” value is “low polyreactivity”.

Consider “QVQLVETGGGLVQAGGSLRLICAASGSTFWRNAMGWYRQAPGKERELVATISKSGGRTYYADSVKGRFTISRDNAKNTVYLQMNRLKPEDTAVYYCAADQYWYKPYVGELYDYDYWGQGTQVTVSS”, for which the “polyreactivity (PSR sort gate)” value is on record as “low polyreactivity”.

Consider “QVQLVESGGGLVQAGGSLRLSCAASGRIFVGYAMGWYRQAPGKERELVAAISARGGSTYYADSVMGRFTISRDNAKNTVYLQMNSLKPEDTADYYCAADEASSRGYYDSDYWGQCTQVTVSS”, for which the “polyreactivity (PSR sort gate)” value was “low polyreactivity”.

“QVQLVESGGGLVQAGGSLRLSCAPSGRTFWTNAMGWYRQAPGKERELVAAIRNSGGRTYYADSVKGRFTISRDNAKNTVFLQMNSLKPEDSAVYYCNARSSIRPRQGGYEHWGQGTQVTVSS”: the “polyreactivity (PSR sort gate)” value was “low polyreactivity”.

For the sequence “QVQLVESGGGLVQAGGSLRLSCAASGRTLYGYAMGWYRQAPGKERELVARITGRDGSTDYADSVKGRFTISRDNAKNTVYLQMNSLKPEDTAVYYCNARVRFHWYRSDYWGQGTQVTVSS”, the “polyreactivity (PSR sort gate)” value is given as “high polyreactivity”.

For “QLLLQESGRGLVQAGVSLRLSCAASGSIFLVYTIGCYRKAPLKEREFVAGIPLGTTTYNADSVKGRFTISRDNVKNTVYLQINSLKPEDTSVYYCAVAVGHYTDIWDWGQGTQVTMSS”, the “polyreactivity (PSR sort gate)” value is “high polyreactivity”.

On to “QVQLVESGGGLVQAGGSLRLSCAASGFIFGDYAMGWYRQAPGKEGELVAAIRGSDSTTYYADSVKGRFTISRDNAKNTVYLQMNSLKPEDTAVYYCAAVGVVPLKKSARVYYWGQGTQVTVSS”, for which the “polyreactivity (PSR sort gate)” value is “low polyreactivity”.

Take “QVQLVESGGGLVQAGGTLRLSCAASGIIFHWYAMGWYRQAPGKERELVAAITQSGGSTSYADSVKGRFTISRDNAKNTVYLQMNSLIPEDTAVYYCNAREVRDEYNYWGQGTQVTVSS”: the “polyreactivity (PSR sort gate)” value was “low polyreactivity”.

For “QVQLVESGGGLVQAGGSLRLSCAASGSIFAYYTMGWSRQAPGKERELVATISSRGGSTNYADSVKGRFTISRDNAKNTVYLQMNSLKPEDTAVYYCNTAGAADRRRAYDHDYWGQGTQVTVSS”, the “polyreactivity (PSR sort gate)” value is “high polyreactivity”.

Regarding “QVQLVESGGGLVQAGGSLRLSCAASGSIFQQYAMGWYRQAPGKERELVAAISWGDGSTYYADSVKGRFTISRDNAKNTVYLQMNSLKPEDTAVYYCNAYASAPLWSLEDDYWGQGTQVTVSS”, the “polyreactivity (PSR sort gate)” value is “low polyreactivity”.

Take “QVQLVESGGGLVQAGGSLRLSCAASGSTIPDNTMGWYRQAPGKEREFVAAISRIGGTYYADSVKGRFTISRDNAKNYVYLQMNSLKPEDTAVYDCNAYPQGLSGRYHGFDYWGQGTQVTVST”: the “polyreactivity (PSR sort gate)” value is given as “low polyreactivity”.

For “QVQPVESGGGLVQAGGSLRLSCAASGFIFSSYAMGWYRQAPGKERELVAAITSGGSTNYADSVKGRFTISRDNAKNTVYLQMNSMKPEDTAVYYCATVPGGSWFFHWWSTGGDDEYWGQGTQVTVSS”, the “polyreactivity (PSR sort gate)” value is on record as “low polyreactivity”.

As to “QVQLVESGGGLVQAGGSLRLSCAASGSTSYDNAMGWYRQAPGKERELVASISSDGSTNYADSVKGRFTISRDNAKNTVYLQMNSLKPEDTAVYYCNVEVTRGLSHDPEYDYWGQGTQVTVSS”, the “polyreactivity (PSR sort gate)” value is on record as “low polyreactivity”.

On to “QVQLVESGGGLVQAGGSLRLRCAASGSTFGLYTMGWYSQAPGKERELVASISIVGSTYYADSVKGLFTSSRDNAKNTVYFQMNSLKPVDTAVYYCAADSEIIYTVRNRTYPWIMDYWGQGTQVTVSS”, for which the “polyreactivity (PSR sort gate)” value is “low polyreactivity”.

For “QVQLVESGGGLVQAGGSLRISCAASGRIFYGNAMGWYRQAPGKERELVAAIRRSGGSTYYADSVKGRFTISRDNAKNTVYLQMNSLKPEDTAVYYCNVDSGEFDYVWVYTYDYWGQGTQVTVSS”, the “polyreactivity (PSR sort gate)” value is listed as “low polyreactivity”.

On to “QVQLVESGGGLVQAGGSLSLSCAASGLTFVDNAMGWYRQAPWKERELVAAISYNGGSTYYADSVKGRFTISRDHAKTTVYLQMNSLKPEDTAVYSCAADIYVGRYGDMDFWGQGTQVTVSS”, for which the “polyreactivity (PSR sort gate)” value is reported as “low polyreactivity”.

Consider “QVQLVESGGGLVQAGGSLRLSCAASGSTFTLYAMGWYRQAPGKERELVATITGSGGSTNYADSVKGRFTISRDNAKNTVDLQMNSLKPEDTAVYYCAKRVQQSTWYGYGIGYEYWGQGTQVTVSS”, for which the “polyreactivity (PSR sort gate)” value is “high polyreactivity”.

Consider “QVQLVESGGGLVQAGGSLRLSCAASGFTFYRYAMGWYRQAPGKERELVAVISSSGGRTYYADSVKGRFTISRDNAKNTVYLQMNSLKPEDTAVYYCAAVGAVRREDYWGQGTQVTVSS”, for which the “polyreactivity (PSR sort gate)” value is listed as “high polyreactivity”.

For “QVQLVDSGGGLVQARVNLRLSCRATGIIFYLYVMGWYRQSPGKDRELVAVISYSGDDTYYADSVQVRFTISRDNAKNTVYLQMISLKPEDTAVYYCADDSIGYGVDYWGQGTQVTVSS”, the “polyreactivity (PSR sort gate)” value is “low polyreactivity”.

Take “QVQLVESGGGLVQAGGSLRLSCAASGITFVHYAMGWYRQAPGKERELVAAITVGDGGTYYADSVKGRFTISRDNAKNTVYLQMNSLKPEDTAVYYCAAGFYSYSWYVKLAYGYWGQGIQVTVSS”: the “polyreactivity (PSR sort gate)” value is listed as “low polyreactivity”.

With “QVQLVESGGGLVQAGGSLRLSCAASGSTFIWNGIVWSRQAPGNEREWVAAITSSSTNYADSVKGRFTISRDNANNTVYVQMNSLKPEDTAVYYCAAEIYPLGSLRLGPGEYDHWGQGTQVTVSS”, the “polyreactivity (PSR sort gate)” value was “low polyreactivity”.
